From publication doi:10.1101/2024.07.18.604040

Molecular target: recombinant human λS Full-Length free light chain (rλS-LC) (human)

- stoichiometry N: 2
Substance: recombinant human λS Full-Length free light chain (rλS-LC) (natural protein)
